This note sets out measurements from PMC6511843.

In series [1] the test system is ELK-1(K70R);coreSRF. The series can be described thus: EMSA. The conditions noted are these: not given in material (EMSA as in ref 29; southwestern as in ref 34, modified). In general terms: Mobility shift assays separate free from complexed probe on a gel.
The subject of series [2] is HA.ELK-1;coreSRF. The series can be described thus: EMSA. Particulars: not given in material (EMSA as in ref 29; southwestern as in ref 34, modified).
Series [3] relates to ELK-1(K35R);coreSRF. Put plainly: EMSA. Particulars: not given in material (EMSA as in ref 29; southwestern as in ref 34, modified).
In series [4] the test system is ELK-mUBQ. Put plainly: southwestern. The conditions noted are these: renatured on nitrocellulose; not given in material (EMSA as in ref 29; southwestern as in ref 34, modified).
In series [5] the test system is HA.ELK-1. The series can be described thus: EMSA. The conditions noted are these: not given in material (EMSA as in ref 29; southwestern as in ref 34, modified).

Turning to CFOS SRE, the binding signal (% of WT ELK-1) in series [1] and in series [3] was 80 in each case. Moreover, the binding signal (% (reference)) in series [2] came to 100.
E74 site returned a binding signal (fold less than unmodified ELK-1) in series [4] of 4. The substance also showed a binding signal (% (reference)) in series [5] of 100.
